According to article PMC2150902 (The Journal of Cell Biology, 2001):

Target: the molecule itself
Assay: dynamic light scattering

B1: Δ9-Sar1A (hamster Sar1 lacking residues 2–9), GDP-bound form (domain or fragment)
chain: not shown
- stoichiometry N: 2
